This note sets out measurements from the supplement of paper PMC9170038.

For series [1], the system named is MS2 coat protein. Put plainly: apparent KD of MS2 coat protein; higher = weaker reporter binding. The following applies: Eterna round: R101. The procedure:
(§1)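 RNA-MaP: designed FMN/MS2 RNA switches (84 nt design region) are transcribed on-chip within common flanks and titrated with SNAP-549-labelled MS2 coat protein (about 1-3000 nM) in 100 mM Tris pH 7.5, 80 mM KCl, 4 mM MgCl2, without or with 200 uM FMN. Median apparent KD per design; activation ratio = KD,OFF / KD,ON.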

Series [2] relates to MS2 coat protein. Put plainly: apparent KD of MS2 coat protein; designed switch direction (-1 OFF switch, 1 ON switch): -1; higher = weaker reporter binding. As to conditions: Eterna round: R98. As for the experimental part:
as §1

The subject of series [3] is MS2 coat protein. The series is described as follows: apparent KD of MS2 coat protein; designed switch direction (-1 OFF switch, 1 ON switch): 1; higher = weaker reporter binding. As to conditions: Eterna round: R98. As for the experimental part:
as §1

As to “UCGGCCCGGGAGAAGGACAUGAGGAUCACCCAUGUCGCCGGGCCCGGGAAACCGGGCCCGGCCAUGUAGGAUAUCCCGGGCCGA [#This is a good prank 2] (puzzle (switch architecture): Inverted Exclusion NG 2)”, the “apparent KD of MS2 coat protein” value was determined as 4.79 nM with MS2 coat protein [1] (input ligand: FMN 200 uM) and 4.59 nM in the series on MS2 coat protein [1] (input ligand: none).

As to “ACCAUUUACUAAUCCUCUAUACAUGAGGAUCACCCAUGUUCUGAGGAUAUCAUCGUUCGCCGCGUUGAGAAGGCAGAGCAUUCG [AriestionMod 1 - Jieux - Exclusion NG 3]”, the figures for the “apparent KD of MS2 coat protein” value in the series on MS2 coat protein [2] (input ligand: FMN 200 uM) and with MS2 coat protein [2] (input ligand: none) were 40.8 nM and 26.8 nM, respectively.

For “UGUCGGAGCAGAGGAUAUUACAUGAGGAUCACCCAUGUAUGAACCAAUAGCUGGAAACAGCAAUGUAAGAAGGCUGCUCCGACA (puzzle (switch architecture): Exclusion NG 2)”, the “apparent KD of MS2 coat protein” value came to 177 nM with MS2 coat protein [1] (input ligand: FMN 200 uM) and 12.3 nM with MS2 coat protein [1] (input ligand: none).

“GGUCGUCACAUAUACAUGAGGAUCACCCAUGUCAAAAGACAUGAGGAUAUGGAUCCUAAUUGGAUCCAGAAGGCAUGGACGACC [#HiddenHairpinInALoop - Mat - Same State NG 3 - JL Mod - D11] (puzzle (switch architecture): Same State NG 3)”: the figures for the “apparent KD of MS2 coat protein” value with MS2 coat protein [1] (input ligand: FMN 200 uM) and in the series with MS2 coat protein [1] (input ligand: none) were 21.4 nM and 412 nM, respectively.

Turning to “AAAUAACUCGAAGGAUAUCAGGGUGCACCUCAGUAAAACUGAGGUGCACCCUGAGAAGGUCGAGGAUCACCCGACCUAAAUAAA [#SharedSequence SLExNG1: 5-2] (puzzle (switch architecture): Small Loop Exclusion NG 1)”, the “apparent KD of MS2 coat protein” value in the series with MS2 coat protein [1] (input ligand: FMN 200 uM) stood at 19.8 nM; in the series with MS2 coat protein [1] (input ligand: none) it was 8.38 nM.

“GGUCGACUUCAAGGAUAUGGACUGCUUUGCAGUCCAGAAGGUGAGGAUCACCCAUCUACGGUCAGGUUUCUGACCGAUCGACCU [#AddUracilToBrourdLoops 8 - Jieux - Exclusion NG1] (puzzle (switch architecture): Exclusion NG 1)”: the “apparent KD of MS2 coat protein” value was found to be 102 nM in the series on MS2 coat protein [1] (input ligand: FMN 200 uM) and 73.4 nM with MS2 coat protein [1] (input ligand: none).

On to “AGGAGAAAUGUAGGAUAUGGGCGGGCGUACGGGCAAAGCGCGUACGCCCGCCCAGAAGGACAUGAGGAUCACCCAUGUUUCCCU [#Lowering the energy 1] (puzzle (switch architecture): Small Loop Exclusion NG 1)”, for which the figures for the “apparent KD of MS2 coat protein” value in the series with MS2 coat protein [1] (input ligand: FMN 200 uM) and with MS2 coat protein [1] (input ligand: none) were 16 nM and 14.5 nM, respectively.

As to “CCUGCACCUCAAGGAUAUCCAGUCGAAACGACUGGAGAAGGUGAGGAUCACCCACCUAGCCUGACGAAAGUCAGGCAUGCAGGA [#SharedSequence - ExNG1-1] (puzzle (switch architecture): Exclusion NG 1)”, the “apparent KD of MS2 coat protein” value in the series with MS2 coat protein [1] (input ligand: FMN 200 uM) came to 32.8 nM.

For the sequence “GUCACGAAUGUAGGAUAUCGAGUGGAAUACACUCGAGAAGGACAUGAGGAUCACCCAUGUAAAAUGAAAGAUAAUAAACGUGAC [Exclsuion NG 1/2-B1]”, the “apparent KD of MS2 coat protein” value in the series with MS2 coat protein [2] (input ligand: FMN 200 uM) came to 51.7 nM; in the series with MS2 coat protein [2] (input ligand: none), 18 nM.

Turning to “UAUAAUCUUUAAGGAUAUGACUCCGUUUCGGAGUCAGAAGGUGAGGAUCACCCACCUAGCUCAGGGUCGUUUGACCCUGAGCAU [#AddUracilToBrourdLoops 9 - Jieux - Exclusion NG1] (puzzle (switch architecture): Exclusion NG 1)”, the entries for the “apparent KD of MS2 coat protein” value in the series with MS2 coat protein [1] (input ligand: FMN 200 uM) and in the series with MS2 coat protein [1] (input ligand: none) were 10.6 nM and 8.87 nM, respectively.

As for “GCAUACAUUCGAGGAUAUCGGUGAACAAAUUAGCGAGAAGGCGAUAUAAUUUUUAAACUUAUUGACAUGAGGAUCACCCAUGUA [JR_SSNG1_Sub011]”, the figures for the “apparent KD of MS2 coat protein” value with MS2 coat protein [3] (input ligand: FMN 200 uM) and in the series on MS2 coat protein [3] (input ligand: none) were 20.5 nM and 24.8 nM, respectively.

Turning to “ACUGUCGCGUGAGGAUAUGGUCUGCAGUGCUGACCAGAAGGCAUGUCGAUAGACAUGAGGAUCACCCAUGUGGUUAGGGCGGAA [salish99_SSNG1_R02_019]”, the “apparent KD of MS2 coat protein” value was 194 nM with MS2 coat protein [3] (input ligand: FMN 200 uM) and 298 nM in the series with MS2 coat protein [3] (input ligand: none).

As for “AGAACAUGAGGAUCACCCAUGUGAAGGUCGGCGUAUAAGGGUGAGGAUAUGCUUAAAAUAAGGAAGCAGAAGGUACUUGGUGCG [SameState #80 NG3]”, the results for the “apparent KD of MS2 coat protein” value in the series on MS2 coat protein [3] (input ligand: FMN 200 uM) and with MS2 coat protein [3] (input ligand: none) were 75.3 nM and 165 nM, respectively.

Take “ACAGGUCGUGAGAAGGCGUGUGGCACCGUCGAAAGACGGUGCAAUUAAGAUCUUCGAGGAUCACCCGAGGAUAUCACGACCUGA [#SharedSequence - IExNG2: 18] (puzzle (switch architecture): Inverted Exclusion NG 2)”: the “apparent KD of MS2 coat protein” value with MS2 coat protein [1] (input ligand: FMN 200 uM) came to 70.4 nM; with MS2 coat protein [1] (input ligand: none), 18.6 nM.

For “UUAUUUUUACAGAAGGUUUAAUAAUAUAUAAGAGAAGGAUAUGUAACAUGAGGAUCACCCAUGUUUCACCCAUAUGAGGAUCAU [Astosinvert#10] (puzzle (switch architecture): Inverted Exclusion NG 1)”, the results for the “apparent KD of MS2 coat protein” value in the series with MS2 coat protein [1] (input ligand: FMN 200 uM) and in the series with MS2 coat protein [1] (input ligand: none) were 7.94 nM and 8.28 nM, respectively.

With “UUACGUCCCGUUUACAUGAGGAUCACCCAUGUCGAAAGACAUGAGGAUAUGCUACCUAGUUGGUAGCAGAAGGCGUGGACGUCG [salish99_SSNG3_r02_005]”, the “apparent KD of MS2 coat protein” value in the series with MS2 coat protein [3] (input ligand: FMN 200 uM) came out at 87.1 nM; with MS2 coat protein [3] (input ligand: none), 121 nM.

In the case of “GUAGCAUACCGAGGAUAUUCUCCGGAAAACCGGACAUGAGGAUCACCCAUGUGGCGAAAGCCUUGGGAGAAGGCGGAAUGCUAC [Xeinanis 75 29]”, the results for the “apparent KD of MS2 coat protein” value with MS2 coat protein [3] (input ligand: FMN 200 uM) and in the series with MS2 coat protein [3] (input ligand: none) were 18.6 nM and 34.4 nM, respectively.

“UAUAUAUAGGCAGGAUAUACAUGUAUAUAUAAUAUAUUAUAUAUUAUUACAUGAGGAUCACCCAUGUAGAAGGGCCAUAAUAUA [LRO035_Exclusion NG 2]”: the “apparent KD of MS2 coat protein” value with MS2 coat protein [2] (input ligand: FMN 200 uM) worked out at 52.7 nM; in the series on MS2 coat protein [2] (input ligand: none), 30 nM.

As to “AAAACAUGAGGAUCACCCAUGUAAAGAUCGGUUAAUAGAAGUGAGGAUAUACAAAAUUUUAGGUAGUAGAAGGCACAGGGUACA [JR_SSNG3_Sub046]”, the “apparent KD of MS2 coat protein” value with MS2 coat protein [3] (input ligand: FMN 200 uM) came to 31.5 nM; in the series with MS2 coat protein [3] (input ligand: none), 33 nM.

In the case of “UUCUGUGCCCAAAGUUAAAGCACAUGAGGAUCACCCAUGUGAAAGGAUAUGUGGCAUGUAAUGUUAUAGAAGGUUCACAAUCAA [Reveention]”, the “apparent KD of MS2 coat protein” value in the series on MS2 coat protein [2] (input ligand: FMN 200 uM) came out at 22.8 nM; with MS2 coat protein [2] (input ligand: none), 14.2 nM.

“AAAACAUGAGGAUCACCCAUGUAAAGAUCGGUUAAUAGAAGUGAGGAUAUGCUUAAAAUAAGGUAGCAGAAGGCACUGGGUACA [JR_SSNG3_Sub040]”: the “apparent KD of MS2 coat protein” value in the series with MS2 coat protein [3] (input ligand: FMN 200 uM) amounted to 27.8 nM; in the series with MS2 coat protein [3] (input ligand: none) it was 23.4 nM.

Take “GGACGUCACAUAAACAUGAGGAUCACCCAUGUCAAAAGACAUGAGGAUAUGGAUGCGAAACGCAUCCAGAAGGCAUGGACGUCC [EliMod 4 - Jieux - Same State NG 3]”: the “apparent KD of MS2 coat protein” value with MS2 coat protein [3] (input ligand: FMN 200 uM) worked out at 57.3 nM; with MS2 coat protein [3] (input ligand: none), 728 nM.

Turning to “AAAUAAAAUAUAGGAUAUGGAAACAUGAGGAUCACCCAUGUAUGAUAAGAUAAAUAAUGAUAUAGCCAGAAGGAUAAAAUAUAA [LRO006_SS NG 2]”, the “apparent KD of MS2 coat protein” value in the series on MS2 coat protein [3] (input ligand: FMN 200 uM) is 42.7 nM; in the series with MS2 coat protein [3] (input ligand: none), 33 nM.

“UCACUCAAGUUAGGAUAUGGAUCGGAAAACGAUCCAGAAGGAACAUGAAAACAUGAGCAUCAGCCAUGUUCCAGAAACGAGUGA [SameSame 4 - Jieux - Same State NG 1]”: the “apparent KD of MS2 coat protein” value with MS2 coat protein [3] (input ligand: FMN 200 uM) turned out to be 23.6 nM.

With “AAAUAACUCGAAGGAUAUGACCCUCGAGGUGACUAAAAGUCACCUCGAGGGUCAGAAGGUCGAGGAUCACCCGACCUAAAUAAA [#SharedSequence SLExNG1: 5-1] (puzzle (switch architecture): Small Loop Exclusion NG 1)”, the “apparent KD of MS2 coat protein” value in the series on MS2 coat protein [1] (input ligand: FMN 200 uM) is 36.8 nM; in the series on MS2 coat protein [1] (input ligand: none), 10.2 nM.

Regarding “AAAACAUGAGGAUCACCCAUGUAUUGAACGGUUAAUAAAAGUGAGGAUAUACAAAAUUUUAUAUAGUAGAAGGCACUGGGUACA [JR_SSNG3_Sub009]”, the “apparent KD of MS2 coat protein” value in the series on MS2 coat protein [3] (input ligand: FMN 200 uM) was 20.8 nM; with MS2 coat protein [3] (input ligand: none), 21.2 nM.

With “UCGACGAAAGUCGAACGAUGUAGCAGAAGGACAUGAGGAUCACCCAUGUCAGCUGUAACAGCCAUGUAGGAUAUGCUACAUCGG [salish99_ISLExNG3_007 #endbits investigation] (puzzle (switch architecture): Inverted Small Loop Exclusion NG 3)”, in the series with MS2 coat protein [1] (input ligand: none), the “apparent KD of MS2 coat protein” value amounted to 4.42 nM.

For the sequence “GGUUUCAGGAUAGGAUAUGGCGUGACAUGGCGGCCAGAAGGAUCCUCGGGAACAUGAGGAUCACCCAUGUGACCGUGUCGAGUC [Biveedve]”, the “apparent KD of MS2 coat protein” value was determined as 190 nM in the series on MS2 coat protein [3] (input ligand: FMN 200 uM) and 741 nM in the series on MS2 coat protein [3] (input ligand: none).

As to “AGGCAGCACUGCUACGUGGCCUCACAUGAGGAUCACCCAUGUAAGGAUAUCGGGUAGCAUUACCACGAGAAGGUACAUAAGAGG [Ceisle] (puzzle (switch architecture): Exclusion NG 3)”, the “apparent KD of MS2 coat protein” value with MS2 coat protein [1] (input ligand: FMN 200 uM) worked out at 25.8 nM; with MS2 coat protein [1] (input ligand: none) it was 15 nM.

Turning to “AAAUAACUUGAAGGAUAUGACCCUCGAGGUGACUAAAAGUCACCUCGAGGGUCAGAAGGUCGAGGAUCACCCGACCUAAAUAAA [#SharedSequence SLExNG1: 6-1] (puzzle (switch architecture): Small Loop Exclusion NG 1)”, the “apparent KD of MS2 coat protein” value came to 6.69 nM in the series on MS2 coat protein [1] (input ligand: FMN 200 uM) and 7.14 nM in the series on MS2 coat protein [1] (input ligand: none).

Regarding “UAGAAGUGGUGAGGAUAUGAAUACGGCUCAUUAUCCUACAUGAGGAUCACCCAUGUGGGUGGUCGUCAGAAGGCACUGCUAUCG [Edretirige]”, the entries for the “apparent KD of MS2 coat protein” value in the series with MS2 coat protein [3] (input ligand: FMN 200 uM) and with MS2 coat protein [3] (input ligand: none) were 181 nM and 32.3 nM, respectively.
